From publication PMC12004354 come the findings set out here.

Test [1] has as its target T1, human recombinant C-reactive protein (human), P02741.
T1 chain: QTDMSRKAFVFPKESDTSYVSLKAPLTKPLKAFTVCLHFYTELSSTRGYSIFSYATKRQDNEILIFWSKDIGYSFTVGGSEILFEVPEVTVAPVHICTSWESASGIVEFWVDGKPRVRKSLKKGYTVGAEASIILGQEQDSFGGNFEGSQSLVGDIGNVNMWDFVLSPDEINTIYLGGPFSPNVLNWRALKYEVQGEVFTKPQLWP
The experiment in a line: native MS; direct infusion native MS with SID; 50 mM ammonium acetate, for charge reduction 20% (v/v) 50 mM TEAA added. The settings on record: remark: other sources report otherwise.

For test [2], the target named is T1, human recombinant C-reactive protein …. The test can be described thus: native MS; native capillary zone electrophoresis-MS (nCZE-MS) with surface-induced dissociation (SID); LPA-coated capillary, 20 kV; BGE 50 mM ammonium acetate pH around 6.8 (normal charge) or 40 mM AmAc with 10 mM TEAA (charge-reducing); 0.5 uM of each complex; precursors 15+/11+ SA and 23+/17+ CRP isolated. To be noted: remark: other sources report otherwise.

As usually defined, the stoichiometry N is a count of units in the complex or per binding partner.

B1: human recombinant C-reactive protein, P02741 19-224 (natural protein)
chain: QTDMSRKAFVFPKESDTSYVSLKAPLTKPLKAFTVCLHFYTELSSTRGYSIFSYATKRQDNEILIFWSKDIGYSFTVGGSEILFEVPEVTVAPVHICTSWESASGIVEFWVDGKPRVRKSLKKGYTVGAEASIILGQEQDSFGGNFEGSQSLVGDIGNVNMWDFVLSPDEINTIYLGGPFSPNVLNWRALKYEVQGEVFTKPQLWP
As for B1, the stoichiometry N in test [1] and in test [2] was 5 throughout.
